B1: SinR (full-length, tetrameric transcriptional repressor) (natural protein, Bacillus subtilis, UniProt P06533 1-111, looked up)
chain: MIGQRIKQYRKEKGYSLSELAEKAGVAKSYLSSIERNLQTNPSIQFLEKVSAVLDVSVHTLLDEKHETEYDGQLDSEWEKLVRDAMTSGVSKKQFREFLDYQKWRKSQKEE

Columns and labels:
[1] = molecular target: the molecule itself; test: SEC
[2] = molecular target: B1; test: AUC
[3] = molecular target: the molecule itself; test: AUC
[4] = molecular target: T1, SinR (Bacillus subtilis, UniProt P06533 1-111); test: fluorescence anisotropy/polarization
T1 sequence: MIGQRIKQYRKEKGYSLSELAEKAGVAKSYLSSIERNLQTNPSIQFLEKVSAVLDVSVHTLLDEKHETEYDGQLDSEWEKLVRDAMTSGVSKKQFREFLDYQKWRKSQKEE

[5] = molecular target: T1, SinR; test: fluorescence quenching DNA-bending assay

## B1
[1]
  stoichiometry N: 4

## EYDGQLDSEWEKLVRDAMTSGVSKKQFREFLDYQKWRKSQKEE (domain or fragment, Bacillus subtilis, UniProt P06533 69-111, looked up) [SinRC, the C-terminal oligomerization domain of SinR (residues 69-111)]
[1]
  stoichiometry N: 4

B2: SinI (antagonist of SinR) (natural protein, Bacillus subtilis, UniProt P23308 1-57, looked up)
chain: MKNAKQEHFELDQEWVELMVEAKEANISPEEIRKYLLLNKKSAHPGPAARSHTVNPF
[1]
  stoichiometry N: 2
[2]
  binding result: binds

B3: SinI^quad (SinI K34E, L38Y, K41W, S42R) (natural protein, Bacillus subtilis, UniProt P23308 1-57, looked up)
chain: MKNAKQEHFELDQEWVELMVEAKEANISPEEIREYLLYNKWRAHPGPAARSHTVNPF
[3]
  stoichiometry N: 2
[2]
  binding result: binds

B4: 22-mer inverted repeat, 6-FAM (dsDNA)
DNA 1: TTTGTTCTCTAAAGAGAACTTA
DNA 2: TAAGTTCTCTTTAGAGAACAAA
[4]
  Kd: 0.249 ± 0.038 µM

B5: 90 bp tapA-sipW-tasA promoter bending substrate (dsDNA)
DNA 1: GAAAGTTCTCTAAAGAGAACATTATAAATAATAAGGGAAGTGCAGTAAATTAGAGGAAAATCATGTATTGTTCTCTAAAGAGAACTTAG
DNA 2: CTAAGTTCTCTTTAGAGAACAATATCATGATTTTCCTCTAATTTACTGCACTTCCCTTATTATTTATAATGTTCTCTTTAGAGAACTTTC
modifications: internal fluorescein-dT (T22 of strand 1); internal BHQ-1-dT (T25 of strand 2), both written as T
[5]
  binding result: binds
